Our source for the self-cleavage values is the RNAGym collection of RNA variant scans (doi:10.7554/elife.80360).

B1: HDV Ribozyme (parent)
chain: GGCCGGCAUGGUCCCAGCCUCCUCGCUGGCGCCGGCUGGGCAACAUUCCGAGGGGACCGUCCCCUCGGUAAUGGCGAAUGGGACCCA

In the data set the parent is B1. The experiment in a line: self-cleavage, relative activity (ratio to wild type); higher = more cleavage; co-transcriptional.
Consider G34C G55A, for which the self-cleavage was found to be 0.147. As for C62G C66U, the figure is 0.554; as for C30U C33G, 0.266. As for G82A C85A, the figure is 0.253; as for C33G U46A, 0. On to C41U G73C, for which the self-cleavage was 0.507. As for G40C A45U, the figure is 0.211; as for C4U C30A, 0.133; as for C24U U79C, 0.161. As for C22G G34A, the figure is 0.0339; as for C4G A87U, 0.225; as for G59A U79G, 0.906. Regarding G34A C58A, the self-cleavage was found to be 0.203. As for G10U U60G, the figure is 0.724; as for U27A C85G, 0.793. For the variant C4U U12C, the self-cleavage turned out to be 0.145. As for C22G A70C, the figure is 0.0489. As for C21G C33U, the figure is 0; as for C33U A51G, 1.01. As for A8C C48U, the figure is 0.776; as for C30A G74C, 0.158.

Take U37C G80A: the self-cleavage was 0.267.

Turning to A45U U46G, the self-cleavage came out at 0.787.

As to A8U C41U, the self-cleavage stood at 0.594. Regarding G73U A87C, the self-cleavage worked out at 0.385. As for C4G G11U, the figure is 0.0767; as for G17C G29A, 0.0437. As for G39A U60G, the figure is 0.404. As for C15G C86G, the figure is 0.317. In the case of A70U C84G, the self-cleavage was found to be 0.541. As for G10C U23C, the figure is 0.95. G6U G17A: the self-cleavage was 0.19. As for C64G U72A, the figure is 0.614. As for G29C G82A, the figure is 0.117; as for C3U C61G, 0.816. On to C18A G29C, for which the self-cleavage came to 0.266. For the variant G1U A8U, the self-cleavage worked out at 0.388. As for G5A A83U, the figure is 0.0426; as for G17A A78G, 0.262; as for C7U A77C, 0.196. As for C36G U46C, the figure is 0; as for G67U A87U, 0.898; as for G6U G39A, 0.0811.

Regarding A8U G11U, the self-cleavage came to 0.201.

For C49A C61U, the self-cleavage came out at 0.789. Regarding G73C G76A, the self-cleavage was 0.604. As for C13A A70G, the figure is 0.166. As for C44U C48U, the figure is 0.898; as for U9G U47G, 1.21; as for G34C C58U, 0.181. As for U37G G38A, the figure is 0.111; as for A8G A87C, 1.18; as for G5A U9C, 0.0639. For C7A C36G, the self-cleavage came to 0.0875. As for G35U G67A, the self-cleavage came to 0.506. As for C33G U37G, the figure is 0.161. As for C7U C18G, the figure is 0.0639; as for C84U C86A, 0.767; as for G59C G76U, 0.891.

Consider U69C A70U, for which the self-cleavage was 0.875.

U23C U72C: the self-cleavage came to 0.665.

For the variant U12G C62G, the self-cleavage turned out to be 0.437. As for U47A G68A, the figure is 1.09; as for C3A U60A, 0.611; as for G17C C41G, 0.0354. As for C24G C36G, the figure is 0.0923. As for U72G G76C, the figure is 0.594; as for C21A U60A, 0.0361. In the case of C61G C63G, the self-cleavage stood at 0.481. As for C15G A83G, the figure is 0.185; as for C26A G53U, 0.932; as for U20C C30U, 0.157.

For the variant C75A A78G, the self-cleavage came out at 0.0898. As for C26A A45U, the figure is 1.19. As for C26G G53U, the figure is 0.812; as for C13G U46C, 0.18; as for A45G G68U, 0.804. As for A43G G59A, the figure is 0.811; as for A8C U72G, 0.332. C15G A78U: the self-cleavage stood at 0.375.

U47G G55U: the self-cleavage worked out at 1.07. As for G1A C44A, the figure is 0.0426; as for G17C C26U, 0.359; as for A42C G52U, 0.282. As for G67C A77C, the figure is 0.227. As for G17U C86G, the figure is 0.583; as for A70U U72A, 0.415; as for G1U A78U, 0.415.

As for U12C A77U, the self-cleavage turned out to be 0.289. For G54C U69G, the self-cleavage was determined as 1.07. As for U23C G53U, the figure is 0.938.

On to C19U U47G, for which the self-cleavage came out at 0.0906. Consider G31C G76A, for which the self-cleavage came to 0.453. As for C4A U9A, the figure is 0.323; as for G28A C61G, 0.133; as for G17C C32U, 0. As for C22U G73C, the figure is 0.256; as for G25A C84A, 0.175; as for G53C G68U, 0.475.

With U20G U60C, the self-cleavage amounted to 0.111. As for G31C C49U, the figure is 0.339; as for G10A A78G, 0.302; as for C3A G39C, 0.0196. As for G17A C61A, the figure is 0.594; as for C63U C66A, 0.978; as for C36A C66A, 0.151. On to U9C U79A, for which the self-cleavage came to 0.831. As to C48U U65A, the self-cleavage came out at 0.876. As for C14U A51G, the self-cleavage was determined as 0.898. As for A70C G74U, the figure is 0.504. Consider G6C U37C, for which the self-cleavage was 0.923.

Turning to G34A U47A, the self-cleavage stood at 0.0997. As for C49G A51C, the figure is 0.623; as for A56C G81C, 0.266. Consider G5C G74U, for which the self-cleavage is 0.161.

Turning to A16G C30U, the self-cleavage came out at 0.665. Turning to U47G U65A, the self-cleavage was 0.942. As for C4A U47G, the figure is 0.201; as for G68C A83U, 0.318; as for C48G U72A, 0.718. As for U27G C49A, the figure is 0.886. As for U20A G39C, the figure is 0.185. Turning to C7G A77G, the self-cleavage stood at 0.0755.

C33G C62U: the self-cleavage is 0.259. C4G C61A: the self-cleavage worked out at 0.35. As for C32A G59C, the figure is 0.271; as for G1U U47C, 0.475. In the case of U47A C75U, the self-cleavage was 0.203. As for G10A C24U, the figure is 0.338.

With G53A G73C, the self-cleavage came out at 0.265. As for G25A C86G, the figure is 0.122; as for C26U C61U, 0.941.

On to G40C U60A, for which the self-cleavage turned out to be 0.25. Regarding C44G C66U, the self-cleavage came to 0.694.

C24U A51U: the self-cleavage was 0.681.

In the case of C32U C41A, the self-cleavage was 0.591.

For the variant C19U C66U, the self-cleavage came out at 0.22. As for U20C A77U, the figure is 0.0898. As for U72C A87G, the figure is 0.712; as for G54U A83U, 0.446. As for C21A U65A, the figure is 0.0405. For G25A A78G, the self-cleavage is 0.0339.

With G50U U79C, the self-cleavage was 0.507.

Regarding G5A A70U, the self-cleavage was determined as 0.19. As for C33A C63A, the figure is 0.196; as for C41G A51U, 1.18. With G1A C15U, the self-cleavage was determined as 0.0665. As for C26U U69G, the self-cleavage came to 0.96.

Take G28C U65C: the self-cleavage was determined as 0.101.

Consider C21U A51C, for which the self-cleavage turned out to be 0.332. As for G54C G76U, the figure is 1.11.

For C41U C64A, the self-cleavage turned out to be 0.906. As for A16G C75A, the figure is 0.122; as for C63G A70G, 0.76; as for U9C C30A, 0.458. G31A A56U: the self-cleavage was determined as 0.482. Regarding U27G G53U, the self-cleavage is 0.923. As for A16U C64U, the figure is 0.866; as for C24A G59C, 0.8. As for G55C C75A, the figure is 0.148; as for C30U C66U, 0.544; as for G52A A70G, 1.02. As for A8U G67A, the figure is 0.855; as for G52A C66A, 1.09. Turning to C33A G73C, the self-cleavage was 0.149. As for C18A C21U, the figure is 0.089. As for U12G C58G, the figure is 0.499.
